Experimental data taken from paper PMC5964024.

Experiments:
R5gp120-Hi (human) = R5gp120-Hi (human) (UniProt P51681); experiment: flow cytometry on cells
[1] = target: myc-tagged human CCR5 (wildtype) (human) (UniProt P51681); experiment: flow cytometry on cells

BaL gp120-CD4-FLAG (from UniProt P01730 26-209) (ligand)
Kd (R5gp120-Hi (human)): 12 nM | Kd [1]: 32 nM
